Data from patent US20170114111A1 (UNIVERSITY OF CAPE TOWN, published 2017).

Molecular target: CD64 (human, UniProt P12314 16-374)
Test: cell-based or functional assay

CD64, sequence (P12314 16-374): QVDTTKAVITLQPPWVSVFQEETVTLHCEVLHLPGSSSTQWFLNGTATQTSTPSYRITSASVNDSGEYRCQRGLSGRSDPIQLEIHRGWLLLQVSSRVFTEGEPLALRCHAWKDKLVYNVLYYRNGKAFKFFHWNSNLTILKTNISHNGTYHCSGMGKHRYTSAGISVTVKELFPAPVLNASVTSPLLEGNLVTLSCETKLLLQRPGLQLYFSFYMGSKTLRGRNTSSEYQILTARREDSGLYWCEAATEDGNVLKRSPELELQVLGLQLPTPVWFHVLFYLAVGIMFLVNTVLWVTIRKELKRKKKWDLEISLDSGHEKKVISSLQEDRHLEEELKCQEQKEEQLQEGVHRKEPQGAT

B1: H22-Ang GGRR/QGmut (other)
chain: DAAQPAMAQVQLVESGGGVVQPGRSLRLSCSSSGFIFSDNYMYWVRQAPGKGLEWVATISDGGSYTYYPDSVKGRFTISRDNSKNTLFLQMDSLRPEDTGVYFCARGYYRYEGAMDYWGQGTPVTVSSGGGGSGGGGSGGGGSDIQLTQSPSSLSASVGDRVTITCKSSQSVLYSSNQKNYLAWYQQKPGKAPKLLIYWASTRESGVPSRFSGSGSGTDFTFTISSLQPEDIATYYCHQYLSSWTFGQGTKLEIKAAALESRQDNSRYTHFLTQHYDAKPQGRDDRYCESIMRRRGLTSPCKDINTFIHGNKRSIKAICENKNGNPHRENLRISKSSFQVTTCKLHRRSPWPPCQYRATAGFRNVVVACENGLPVHLDGSIFRRPAEHEFRGGPEQKLISEEDLNSAVDHHHHHH
  IC50, XTT viability assay on IFNγ-stimulated CD64+ HL-60 cells: 4.2 nM
  IC50, XTT viability assay on activated human Mφ: 0.075 nM
  IC50, XTT viability assay on hIFNγ-stimulated HL-60 cells: 4.3 nM
